According to the Immune Epitope Database (IEDB):
Each block holds one sequence with its values, some of them ahead of it.

Key:
Test in all cases: IEDB peptide-MHC binding, purified MHC/competitive/radioactivity; filed as Kd, often an IC50 or EC50 that approximates it; ≥ and ≤ were set here for values at or beyond the usual limits of such assays
[1] = target: HLA-A*03:01
[2] = target: HLA-A*11:01
[3] = target: HLA-A*31:01
[4] = target: HLA-A*33:01
[5] = target: HLA-A*68:01
[6] = target: HLA-A*02:03; conditions: source organism: Dengue virus 4 Philippines/H241/1956
[7] = source organism: Vaccinia virus Copenhagen
[8] = source organism: Triticum aestivum
[9] = source organism: SARS coronavirus Tor2
[10] = source organism: Vaccinia virus WR
[11] = source organism: Lassa virus Josiah

Sequence: QLMYALEPRK
- Kd [1, 7]: 150 nM
- Kd [2, 7]: 85 nM
- Kd [3, 7]: 8370 nM
- Kd [4, 7]: ≥ 70000 nM
- Kd [5, 7]: 83.8 nM

- Kd [1, 8]: 12500 nM
- Kd [2, 8]: 914 nM
- Kd [3, 8]: 2370 nM
- Kd [4, 8]: ≥ 77700 nM
- Kd [5, 8]: 728 nM
Sequence: QQHNIVHGK

Sequence: QSADASTFLK
- Kd [1, 9]: 348 nM
- Kd [2, 9]: 10.2 nM
- Kd [3, 9]: 1020 nM
- Kd [4, 9]: 5290 nM
- Kd [5, 9]: 49.4 nM

Sequence: RIQRRDDVDR
- Kd [1, 10]: ≥ 70100 nM
- Kd [2, 10]: ≥ 69800 nM
- Kd [3, 10]: 78.5 nM
- Kd [4, 10]: 17600 nM
- Kd [5, 10]: ≥ 42500 nM

Sequence: RVDIYYNGNK
- Kd [1, 10]: 45.6 nM
- Kd [2, 10]: 4.86 nM
- Kd [3, 10]: 5360 nM
- Kd [4, 10]: ≥ 53600 nM
- Kd [5, 10]: 120 nM

Sequence: SFYYIWKSY
- Kd [1, 9]: 5150 nM
- Kd [2, 9]: 6730 nM
- Kd [3, 9]: 68.1 nM
- Kd [4, 9]: 779 nM
- Kd [5, 9]: 447 nM

Sequence: SIHLTKTDKK
- Kd [1, 10]: 185 nM
- Kd [2, 10]: 278 nM
- Kd [3, 10]: ≥ 21800 nM
- Kd [4, 10]: ≥ 70000 nM
- Kd [5, 10]: 1990 nM

Sequence: SLSVETITEK
- Kd [1, 10]: 33.2 nM
- Kd [2, 10]: 117 nM
- Kd [3, 10]: 1250 nM
- Kd [4, 10]: ≥ 70000 nM
- Kd [5, 10]: 12200 nM

Sequence: SQMLLIVLK
- Kd [1, 9]: 204 nM
- Kd [2, 9]: 0.503 nM
- Kd [3, 9]: 350 nM
- Kd [4, 9]: 4960 nM
- Kd [5, 9]: 310 nM

Sequence: SSLDQTHIK
- Kd [1, 7]: 961 nM
- Kd [2, 7]: 31.8 nM
- Kd [3, 7]: 26 nM
- Kd [4, 7]: 19800 nM
- Kd [5, 7]: 1490 nM

Sequence: STNLCTHSFR
- Kd [1, 9]: 297 nM
- Kd [2, 9]: 10.6 nM
- Kd [3, 9]: 0.941 nM
- Kd [4, 9]: 8.87 nM
- Kd [5, 9]: 6.19 nM

Sequence: STRTIILVGY
- Kd [1, 10]: 188 nM
- Kd [2, 10]: 221 nM
- Kd [3, 10]: 339 nM
- Kd [4, 10]: 8020 nM
- Kd [5, 10]: 100 nM

Sequence: SVEDVSAFVR
- Kd [1, 10]: ≥ 70100 nM
- Kd [2, 10]: 36.8 nM
- Kd [3, 10]: 656 nM
- Kd [4, 10]: 2120 nM
- Kd [5, 10]: 15.6 nM

Sequence: SVIRLLIWAY
- Kd [1, 10]: 1380 nM
- Kd [2, 10]: 17.3 nM
- Kd [3, 10]: 2240 nM
- Kd [4, 10]: 17600 nM
- Kd [5, 10]: 776 nM

Sequence: TFNSLNTDDY
- Kd [1, 10]: 5440 nM
- Kd [2, 10]: 10100 nM
- Kd [3, 10]: ≥ 34200 nM
- Kd [4, 10]: ≥ 70000 nM
- Kd [5, 10]: 4080 nM

Sequence: TLTNTSIINH
- Kd [1, 11]: 5160 nM
- Kd [2, 11]: 15400 nM
- Kd [3, 11]: ≥ 59800 nM
- Kd [4, 11]: ≥ 70000 nM
- Kd [5, 11]: 13100 nM

Sequence: TQVLKTMSLY
- Kd [1, 9]: 185 nM
- Kd [2, 9]: 2670 nM
- Kd [3, 9]: 9420 nM
- Kd [4, 9]: ≥ 27600 nM
- Kd [5, 9]: 10300 nM

Sequence: TTKDYFSFKK
- Kd [1, 10]: 31.3 nM
- Kd [2, 10]: 1.25 nM
- Kd [3, 10]: 96.4 nM
- Kd [4, 10]: 1330 nM
- Kd [5, 10]: 0.556 nM

Sequence: TVYDDAARR
- Kd [1, 9]: 455 nM
- Kd [2, 9]: 97.1 nM
- Kd [3, 9]: 1160 nM
- Kd [4, 9]: 4970 nM
- Kd [5, 9]: 2.54 nM

Sequence: VIGLTTHCTK
- Kd [1, 10]: 15.4 nM
- Kd [2, 10]: 45.9 nM
- Kd [3, 10]: 761 nM
- Kd [4, 10]: ≥ 35300 nM
- Kd [5, 10]: 73.2 nM

Sequence: VLCNSQTSLR
- Kd [1, 9]: 435 nM
- Kd [2, 9]: 1860 nM
- Kd [3, 9]: 68.4 nM
- Kd [4, 9]: 1180 nM
- Kd [5, 9]: 1010 nM

Sequence: VLDRDGNFR
- Kd [1, 10]: 3330 nM
- Kd [2, 10]: 15600 nM
- Kd [3, 10]: 159 nM
- Kd [4, 10]: 607 nM
- Kd [5, 10]: 926 nM

Sequence: VLTLATGPV
- Kd [6]: 24.9 nM

Sequence: VSYEVFDDY
- Kd [1, 10]: ≥ 37100 nM
- Kd [2, 10]: 134 nM
- Kd [3, 10]: ≥ 77900 nM
- Kd [4, 10]: 19100 nM
- Kd [5, 10]: 1570 nM

Sequence: VTMMKYCSY
- Kd [1, 10]: 650 nM
- Kd [2, 10]: 8.78 nM
- Kd [3, 10]: 460 nM
- Kd [4, 10]: 2060 nM
- Kd [5, 10]: 521 nM

Sequence: VTYVPSQER
- Kd [1, 9]: 3270 nM
- Kd [2, 9]: 883 nM
- Kd [3, 9]: 23.6 nM
- Kd [4, 9]: 341 nM
- Kd [5, 9]: 1130 nM

Sequence: VVPDYGTYK
- Kd [1, 9]: 309 nM
- Kd [2, 9]: 84.4 nM
- Kd [3, 9]: 2720 nM
- Kd [4, 9]: 17200 nM
- Kd [5, 9]: 494 nM

Sequence: WFLKSGAVVK
- Kd [1, 10]: 11 nM
- Kd [2, 10]: 116 nM
- Kd [3, 10]: 7630 nM
- Kd [4, 10]: 4410 nM
- Kd [5, 10]: 191 nM

Sequence: WLSSKGLACY
- Kd [1, 10]: 418 nM
- Kd [2, 10]: ≥ 28900 nM
- Kd [3, 10]: 19500 nM
- Kd [4, 10]: ≥ 58600 nM
- Kd [5, 10]: ≥ 28300 nM

Sequence: YFTFGDTALY
- Kd [1, 10]: 9010 nM
- Kd [2, 10]: 6400 nM
- Kd [3, 10]: ≥ 48000 nM
- Kd [4, 10]: ≥ 45300 nM
- Kd [5, 10]: 49.9 nM

Sequence: YLRNYMVIK
- Kd [1, 10]: 1.34 nM
- Kd [2, 10]: 897 nM
- Kd [3, 10]: 35 nM
- Kd [4, 10]: 930 nM
- Kd [5, 10]: 1670 nM

Sequence: YVKNGTKGK
- Kd [1, 10]: 2080 nM
- Kd [2, 10]: 875 nM
- Kd [3, 10]: ≥ 72100 nM
- Kd [4, 10]: ≥ 65500 nM
- Kd [5, 10]: 39.3 nM
